Test results as given in patent publication US20240392002A1 (EXELIXIS, published 2024).
Where a chain is given by its changes, count along the chain named. Numbers in names are those of the source.

B1: I2A-10 IgG1 (antibody, V domains shown)
VH: EVQLVESGGGLVQPGGSLRLSCAASGFTFSSYFIHWVRQAPGKGLEWVAGIYPSDGYTSYADSVKGRFTISADTSKNTAYLQMNSLRAEDTAVYYCARYYVSGMDYWGQGTLVTVSS
VL: DIQMTQSPSSLSASVGDRVTITCRASQSVSSAVAWYQQKPGKAPKLLIYSASSLYSGVPSRFSGSRSGTDFTLTISSLQPEDFATYYCQQYYYYPGTFGQGTKVEIKR
notes: bivalent monospecific native human full-length IgG1; the Domain F / Domain A entries end with AS / RT of the junction to the constant domain; also called clone I2-A10
B2: I2C-2 IgG1 (antibody, V domains shown)
VH: B1 VH with S31D, S54Y, D55S, S59K, Y99D, Y100H, V101S, S102P, G103V, M104L
VL: DIQMTQSPSSLSASVGDRVTITCRASQSVSSAVAWYQQKPGKAPKLLIYSASSLYSGVPSRFSGSRSGTDFTLTISSLQPEDFATYYCQQWYYWPGTFGQGTKVEIK
notes: human IgG1
B3: I2C-23 IgG1 (antibody, V domains shown)
VH: EVQLVESGGGLVQPGGSLRLSCAASGFTFSSYEIHWVRQAPGKGLEWVASIYPFSGDTYYADSVKGRFTISADTSKNTAYLQMNSLRAEDTAVYYCARPGRAIYYAVMDYWGQGTLVTVSS
VL: B2 VL with W91A, Y92G, Y93S, W94H, P95L, G96F
notes: human IgG1
B4: I2C-8 IgG1 (antibody, V domains shown)
VH: EVQLVESGGGLVQPGGSLRLSCAASGFTFSGYFIHWVRQAPGKGLEWVAAIFPYRGGTSYADSVKGRFTISADTSKNTAYLQMNSLRAEDTAVYYCARGGVSPGGFDYWGQGTLVTVSS
VL: B2 VL with W91Y, Y93L, W94Y
notes: human IgG1; same CDRs as I2A-16; also called 12C-8
B5: I2C-10 IgG1 (antibody, V domains shown)
VH: EVQLVESGGGLVQPGGSLRLSCAASGFTFSSYFIHWVRQAPGKGLEWVATIHSYFDGTSYADSVKGRFTISADTSKNTAYLQMNSLRAEDTAVYYCARTRPTGGAFDYWGQGTLVTVSS
VL: B2 VL with W91A, Y93W, W94S, G96A
notes: human IgG1
B6: I2A-32 IgG1 (antibody, V domains shown)
VH: EVQLVESGGGLVQPGGSLRLSCAASGFTFQSYVIHWVRQAPGKGLEWVAAIYPYSSSTIYADSVKGRFTISADTSKNTAYLQMNSLRAEDTAVYYCARSWSVYLGMDYWGQGTLVTVSS
VL: B2 VL with W91S, Y93D, W94S, G96R
notes: human IgG1
B7: I2C-6 IgG1 (antibody, V domains shown)
VH: EVQLVESGGGLVQPGGSLRLSCAASGFTFSWYFIHWVRQAPGKGLEWVARIYSTGGYTEYADSVKGRFTISADTSKNTAYLQMNSLRAEDTAVYYCARSAFFGALDYWGQGTLVTVSS
VL: B2 VL with W91Y, Y92P, Y93S, W94G, G96E
notes: human IgG1
B8: I2A-6 IgG1 (antibody, V domains shown)
VH: EVQLVESGGGLVQPGGSLRLSCAASGFTFSLYAIHWVRQAPGKGLEWVAEIDSWLGYTYYADSVKGRFTISADTSKNTAYLQMNSLRAEDTAVYYCARRPVTEVYYSALDYWGQGTLVTVSS
VL: B2 VL with W91Y, Y92D, Y93R, W94S, P95L, G96H
notes: human IgG1
B9: I2C-4 IgG1 (antibody, V domains shown)
VH: EVQLVESGGGLVQPGGSLRLSCAASGFTFWSYFIHWVRQAPGKGLEWVAYIHPSSSYTDYADSVKGRFTISADTSKNTAYLQMNSLRAEDTAVYYCARTSRDGAMDYWGQGTLVTVSS
VL: B2 VL with Y93S, W94P, G96E
notes: human IgG1
B10: I2A-11 IgG1 (antibody, V domains shown)
VH: EVQLVESGGGLVQPGGSLRLSCAASGFTFSSYVIHWVRQAPGKGLEWVAAIYPYTSSTQYADSVKGRFTISADTSKNTAYLQMNSLRAEDTAVYYCARSYGTGGFDYWGQGTLVTVSS
VL: B2 VL with Y93S, W94Y, G96L
notes: human IgG1
B11: I2A-34 IgG1 (antibody, V domains shown)
VH: EVQLVESGGGLVQPGGSLRLSCAASGFTFSWYVIHWVRQAPGKGLEWVAYIAPYTGSTYYADSVKGRFTISADTSKNTAYLQMNSLRAEDTAVYYCARAFFGIRLGLDYWGQGTLVTVSS
VL: B2 VL with W91A, Y92I, Y93S, W94S, G96Y
notes: human IgG1
B12: I2A-25 IgG1 (antibody, V domains shown)
VH: EVQLVESGGGLVQPGGSLRLSCAASGFTFYGYTIHWVRQAPGKGLEWVAAIYPYTDSTRYADSVKGRFTISADTSKNTAYLQMNSLRAEDTAVYYCARDYRRALDYWGQGTLVTVSS
VL: B2 VL with W91Y, Y92T, Y93D, W94F, G96W
notes: human IgG1
B13: I2C-9 IgG1 (antibody, V domains shown)
VH: EVQLVESGGGLVQPGGSLRLSCAASGFTFTDYDIHWVRQAPGKGLEWVARIWPHGSYTFYADSVKGRFTISADTSKNTAYLQMNSLRAEDTAVYYCARSLTHSYGFDYWGQGTLVTVSS
VL: B2 VL with W91Y, Y93T, P95L, G96I
notes: human IgG1
B14: I2A-19 IgG1 (antibody, V domains shown)
VH: EVQLVESGGGLVQPGGSLRLSCAASGFTFSSYFIHWVRQAPGKGLEWVAWIYPSGSYTYYADSVKGRFTISADTSKNTAYLQMNSLRAEDTAVYYCAREMDRVGYSGMDYWGQGTLVTVSS
VL: B2 VL with W91Y, Y92R, Y93T, W94P, P95L
notes: human IgG1
B15: non-mutagenized SP34-89 monovalent B-Body (bispecific antibody, V domains shown)
VH: EVQLVESGGGLVQPGGSLRLSCAASGFTFNTYAMNWVRQAPGKGLEWVARIRSKYNNYATYYADSVKGRFSISRDDSKNTAYLQMNSLRAEDTAVYYCVRHGNFGNSYVSWFAYWGQGTLVTV
VL: QAVVTQEPSLTVSPGGTVTLTCRSSTGAVTTSNYANWVQQKPGQAPRGLIGGTNKRAPWTPARFSGSLLGGKAALTITGAQAEDEADYYCALWYSNLWVFGGGTKLTVL
notes: cloned into one arm of a 1×1 BC1 B-Body

These binders were tested against T1, extracellular domain of human ROR2 (human, UniProt Q01974 34-403) (assay: BLI, IgG1 on biosensor, soluble ROR ectodomain).
T1 construct: bought protein; biotinylated in the bivalent assay format; also called Acro Cat. No. RO2-H52E5
From the text: (§1) To measure binding affinity in ROR binder discovery campaigns, the VL and VH domains identified in the phage screen described above were formatted into a bivalent monospecific native human full-length IgG1 architecture and immobilized to a biosensor on an Octet (Pall ForteBio) biolayer interferometer. Soluble ROR antigens, including the extracellular domains of ROR1 (Acro Cat. No. RO1-H522γ) and ROR2 (Acro Cat. No. R02-H52E5), as well as the individual ROR1 Frizzled (Acro Cat. No. RO1-H5222), Ig-like (Acro Cat. No. RO1-H5221), and Kringle (Acro Cat. No. RO1-H5223) domains, were then added to the system and binding measured.
(§2) ROR binding candidates, formatted in the bivalent monospecific native human full-length IgG1 architecture, were further characterized for binding to ROR1 and/or ROR2. […] ROR binding candidates were also characterized for their binding to specific ROR1 domains.

T1 sequence (Q01974 34-403 limits assumed): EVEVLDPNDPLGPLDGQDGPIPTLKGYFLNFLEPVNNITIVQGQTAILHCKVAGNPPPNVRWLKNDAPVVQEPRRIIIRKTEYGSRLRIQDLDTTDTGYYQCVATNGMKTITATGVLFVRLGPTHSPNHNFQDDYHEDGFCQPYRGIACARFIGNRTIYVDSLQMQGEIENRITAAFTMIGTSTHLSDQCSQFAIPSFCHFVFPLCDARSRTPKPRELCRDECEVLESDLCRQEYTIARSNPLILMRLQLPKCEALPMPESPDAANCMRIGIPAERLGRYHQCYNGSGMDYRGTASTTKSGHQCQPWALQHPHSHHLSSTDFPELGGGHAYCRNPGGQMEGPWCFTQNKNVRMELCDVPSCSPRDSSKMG

Q: Does B1 bind?
A: Result: binds

Q: Does B2 bind?
A: Result: binds

Q: Does B3 bind?
A: Result: binds

Q: Does B4 bind?
A: Result: binds

Q: Does B5 bind?
A: Result: binds

Q: Does B6 bind?
A: Result: no binding

Q: Does B7 bind?
A: Result: binds

Q: Does B8 bind?
A: Result: no binding

Q: Does B9 bind?
A: Result: binds

Q: Does B10 bind?
A: Result: binds

Q: Does B11 bind?
A: Result: binds

Q: Does B12 bind?
A: Result: no binding

Q: Does B13 bind?
A: Result: binds

Q: Does B14 bind?
A: Result: binds

Each binder was assayed against T2, extracellular domain of human ROR1 (human, UniProt Q01973 30-406) (assay: BLI, IgG1 on biosensor, soluble ROR ectodomain).
T2 construct: bought protein; biotinylated in the bivalent assay format; also called Acro Cat. No. RO1-H522y
From the text: as §1, §2

T2 sequence (Q01973 30-406 limits assumed): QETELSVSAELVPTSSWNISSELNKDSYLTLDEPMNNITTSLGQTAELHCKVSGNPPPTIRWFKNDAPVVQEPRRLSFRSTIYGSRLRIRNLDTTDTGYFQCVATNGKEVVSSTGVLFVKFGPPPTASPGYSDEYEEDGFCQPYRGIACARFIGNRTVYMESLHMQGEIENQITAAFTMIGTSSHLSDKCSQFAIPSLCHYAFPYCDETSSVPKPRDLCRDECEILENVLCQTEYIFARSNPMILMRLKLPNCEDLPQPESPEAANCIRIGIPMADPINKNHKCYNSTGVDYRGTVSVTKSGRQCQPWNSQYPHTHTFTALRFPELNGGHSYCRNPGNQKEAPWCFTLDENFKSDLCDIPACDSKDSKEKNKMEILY

Q: Does B2 bind?
A: Result: binds

Q: Does B3 bind?
A: Result: binds

Q: Does B4 bind?
A: Result: binds

Q: Does B5 bind?
A: Result: binds

Q: Does B6 bind?
A: Result: binds

Q: Does B7 bind?
A: Result: binds

Q: Does B8 bind?
A: Result: binds

Q: Does B9 bind?
A: Result: binds

Q: Does B10 bind?
A: Result: binds

Q: Does B11 bind?
A: Result: binds

Q: Does B12 bind?
A: Result: binds

Q: Does B13 bind?
A: Result: binds

Q: Does B14 bind?
A: Result: binds

What follows are binders tested against human CD3 delta and epsilon heterodimer (human, UniProt P07766 23-126; P04234 22-105) (assay: BLI (Octet), two-fold serial dilution 200-12.5 nM of the construct).
Sequence of human CD3 delta and epsilon heterodimer (P07766 23-126, stated change not applied, chain 1 of 2): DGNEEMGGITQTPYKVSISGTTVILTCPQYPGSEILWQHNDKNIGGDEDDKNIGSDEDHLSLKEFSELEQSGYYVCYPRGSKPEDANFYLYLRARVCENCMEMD
Sequence of human CD3 delta and epsilon heterodimer (P04234 22-105, stated change not applied, chain 2 of 2): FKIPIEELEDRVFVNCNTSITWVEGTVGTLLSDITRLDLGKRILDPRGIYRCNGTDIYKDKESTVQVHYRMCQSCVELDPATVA

Q: Which results are given for B15?
A: Kd: 23 nM; koff: 0.0071 s⁻¹; kon: 300000 M⁻¹ s⁻¹

What follows are binders tested against T3, ROR1 Ig-like domain (human, UniProt Q01973 42-147) (assay: BLI, IgG1 on biosensor, soluble ROR1 domain).
T3 construct: also called Acro Cat. No. RO1-H5221
From the text: as §1, §2

T3 sequence (Q01973 42-147): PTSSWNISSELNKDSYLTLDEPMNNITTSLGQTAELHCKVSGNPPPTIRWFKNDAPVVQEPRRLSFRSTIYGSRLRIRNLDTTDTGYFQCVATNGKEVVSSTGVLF

Q: Does B2 bind?
A: Result: binds

Q: Does B4 bind?
A: Result: binds

Q: Does B5 bind?
A: Result: binds

Q: Does B8 bind?
A: Result: binds

Q: Does B9 bind?
A: Result: binds

Q: Does B13 bind?
A: Result: binds

The binders below were run against T4, ROR1 Frizzled domain (human, UniProt Q01973 165-299) (assay: BLI, IgG1 on biosensor, soluble ROR1 domain).
T4 construct: also called FZ domain; Acro Cat. No. RO1-H5222
From the text: as §1, §2

T4 sequence (Q01973 165-299): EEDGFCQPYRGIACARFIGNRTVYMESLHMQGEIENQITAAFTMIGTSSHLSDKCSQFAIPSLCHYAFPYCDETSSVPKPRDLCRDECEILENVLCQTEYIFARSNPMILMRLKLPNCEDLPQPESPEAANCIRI

Q: Does B3 bind?
A: Result: binds

Q: Does B6 bind?
A: Result: binds

Q: Does B7 bind?
A: Result: binds

Q: Does B10 bind?
A: Result: binds

Q: Does B11 bind?
A: Result: binds

Q: Does B12 bind?
A: Result: binds

Q: Does B14 bind?
A: Result: binds

These binders were tested against T2, extracellular domain of human ROR1 (assay: BLI (Octet), IgG1, two-fold serial dilution 200-12.5 nM).
From the text: as §1
The VH and VL sequences above were formatted into a bivalent monospecific native human full-length IgG1 architecture.

Q: Which results are given for B1?
A: Kd: 0.82 nM; koff: 0.00038 s⁻¹; kon: 538000 M⁻¹ s⁻¹
